The source of these data is the nanobody polyreactivity screen of Harvey et al. (2022).

This data set can be described thus: yeast display, Sf9 membrane polyspecificity reagent, FACS + sequencing; frameworks hold sequencing errors. A digest of the protocol: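 A synthetic nanobody library was expressed on Saccharomyces cerevisiae BJ5465 by galactose induction for 36–48 hours. The library was stained for 1 hour at 4 °C with 10% biotinylated, detergent-solubilized Sf9 membrane reagent and enriched with streptavidin microbeads before FACS. Low and high (top ~1%) gates were set on anti-HA fluorescence for expression and streptavidin fluorescence for reagent binding, and each polyreactivity label reflects the gate of origin.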
Regarding “QVQLVESGGGLVQAGGSLRLSCAASGSIFAPYAMGWYRQAPGTERELVAAITWSGDSTYYADSVKGRFTISRDNAKNTVYLQMNSLKPEDTAVYYCATEEVYGQGNYWGQGTQVTVSS”, the “polyreactivity (PSR sort gate)” value is listed as “low polyreactivity”.
The entry for “QVQLVESGGGLVQAGGSLRLSCAASGSIFAPYDMGWYRQAPGKERELVAAIDWGGDSTYYADSVKGRFTISRDNAKNTVYLQMNSLKPEDTAVYYCAADDLWLSYRTEYDYYYWGQGTQVTVSS” is “low polyreactivity”; for “QVQLVESGGGLVQAGGSLRLSCAASGSIFAQNAIGWYRQAPGKERELVAAIDLNGGSTYYADSVKGRFTISRDNAKNTVYLQLNSQKPEDTAVYYCAVYYGHSSVIRSSPEYDSWGQGTQVTVSS” it is “low polyreactivity”; for “QVQLVESGGGLVQAGGSLRLSCAASGSIFAQYAMGWYRQAPGKERELVATISSVGSTNYADSVKGRFTISRDNAKNSVYLLMNSLKPEDTAVYYCNAVRSGWGYFYGLNSWGQGTQVTVSS” it is “low polyreactivity”.
The value for “QVQLVESGGGLVQAGGSLRLSCAASGSIFAQYAMGWYRQAPGKETELVAAISYRGGRTYYADSVKGRFTISRDNAKNTVYLQMNSLKPEDTAVYYCNADSSSYSSDLGYDYWGQGTQVTVSS” was “low polyreactivity”; that for “QVQLVESGGGLVQAGGSLRLSCAASGSIFARNAMGSYRQAPGKERELVAAITVRGRTNYADSVKGRFTISRDNAKNTVYLQMNSLKPDDTAVYYCAASLWDDDSRLMYYWGQGTQVTVSS” was “high polyreactivity”.
The entry for “QVQLVESGGGLVQAGGSLRLSCAASGSIFARYAMGWYRQAPGKERELDAAISGRGGSTYYADSVKGRFTISRDNAKNTVYLQMNSLKPEDTAVYYCNAVGHTSIRRALDILDYWGQGTQVTVSS” is “high polyreactivity”; for “QVQLVESGGGLVQAGGSLRLSCAASGSIFARYAMGWYRQAPGKERELVAAISSSGSRTYYADSVKGRFTISRDNAKNTVYLQMNSLKPEDTAVYYCATRYGSASGREYEYWGQGTQVTVSS” it is “high polyreactivity”; for “QVQLVESGGGLVQAGGSLRLSCAASGSIFARYVMGWYRQAPGKERELVAAISRGGRTKYADSVKGRFTISRDNAKNTVYLQMNSLKPEDTAVYYCAASGSQPDDYWGQGTQVTVSS” it is “high polyreactivity”.
With “QVQLVESGGGLVQAGGSLRLSCAASGSIFASNAMGWYRQAPGKERELVAAITDSGSTNYADSVKGRFTISRDNAKNTVYLQMNSLKREDTAVYYCDWSYYVWRRYRVARYDSWGQGTQVTVSS”, the “polyreactivity (PSR sort gate)” value is reported as “low polyreactivity”.
The entry for “QVQLVESGGGLVQAGGSLRLSCAASGSIFASNAMGWYRQAPGKERGLVAAITYNGGSTYYADSVKGRFTISRDNAKNTVYLQMNSLKPEDTAVYYCAALGTRRPHIPRGDYWGQGTQVTVSS” is “low polyreactivity”; for “QVQLVESGGGLVQAGGSLRLSCAASGSIFASYAMGWYRQAPGKERELVAVITRSGGSTYYADSVKGRFTISRDNAKNTVYLQMNSLKPEDTAVYYCAAQYGRTYYSRREYWGQGTQVTVSS” it is “high polyreactivity”.
For “QVQLVESGGGLVQAGGSLRLSCAASGSIFASYDMGWYRQAPGKERELVAAISYRGGGTYYADSVKGRVTISRDNAKNTVYLQMNSLKPEDTAVYYCNADTYSNTYRAYDYWGQGTQVTVSS”, the “polyreactivity (PSR sort gate)” value is on record as “low polyreactivity”.
The entry for “QVQLVESGGGLVQAGGSLRLSCAASGSIFASYVMGWYRQAPGKERELVAAITSRGTSTYYADSVKGRFTISRDNAKNTVYLHMNSLNPEDTAVYYCAARLYGSAPQHEYWGQGTQVTVSS” is “low polyreactivity”; for “QVQLVESGGGLVQAGGSLRLSCAASGSIFAVNAMGWYRQAPGKERELVAAIDWSDGITYYADSVKGRFTISRDNAKNTVYLQMNSLKPEDTAVYYCAADATAYGWYVEQFSFYDNDYWGQGTEVTVSS” it is “high polyreactivity”.
The entry for “QVQLVESGGGLVQAGGSLRLSCAASGSIFAVNAMGWYRQAPGKERELVAAISWNGGSTYYADSVKGRFTISRDNAKNTVYLQMNSLKPEDTAVYYCATVRYKYYWSYYRYGYWGQGTQVTVSS” is “high polyreactivity”.
The value for “QVQLVESGGGLVQAGGSLRLSCAASGSIFAVNTMGWYIQAPGKERELVAAISQRGSSTYYADSVKGRFTISRDNAKNTVYLQMNSLKPEDTAVYYCAKRFIYGRYNYWGQGTQVTVSS” was “high polyreactivity”; that for “QVQLVESGGGLVQAGGSLRLSCAASGSIFAVYAMGWSRQAPGKERELVAAITTSGGSTYYADSVKGRFTISRDNAKNTVYLQMNSLKPEDTAVYYCAAYRGTLLTAYDYWGQGTQVTVSS” was “low polyreactivity”; that for “QVQLVESGGGLVQAGGSLRLSCAASGSIFAVYAMGWYRQAPGKEREFVARISWGGGRTYYADSVKGRCTISRDNAKNPVYLQMNSLKPEDTAVYYCAATFRARPRENYWGQGTQVTVSS” was “high polyreactivity”.
As to “QVQLVESGGGLVQAGGSLRLSCAASGSIFAVYVMGWYRQAPGKERDFVAAITYSGTSTNYADSVKGRFTISRDNAKNTVYLQMNSLKPEDTAVFYCAADVRSSNGHYTLYDYWGQGTQVTVSS”, the “polyreactivity (PSR sort gate)” value is “high polyreactivity”.
The entry for “QVQLVESGGGLVQAGGSLRLSCAASGSIFAWYVMGWYRQAPGKERELVAGIDTSGGSTFYADSVKGRFTISRDNAKNTVYLQMNSLKPEDTAVYYCAADTWFRGPWEFDYWGQGTQVTVSS” is “low polyreactivity”.
Regarding “QVQLVESGGGLVQAGGSLRLSCAASGSIFAYAMGWYRQAPGKERELVAGISSSGGRTYYADSVKGRFTISRDNAKNTVYLQMISLKPEDTAVYYCAARYPNVYQSETYFYWGQGTQVNVSS”, the “polyreactivity (PSR sort gate)” value is “high polyreactivity”.
Regarding “QVQLVESGGGLVQAGGSLRLSCAASGSIFAYNAMGWYIQSPGTERELVAAISSSGGSTTYADSVKGRFTISRDNAKYTVYLQMNSLKPEDTAVYYCNAAWRRSRYYYWGQGTQVTVSS”, the “polyreactivity (PSR sort gate)” value is on record as “high polyreactivity”.
On to “QVQLVESGGGLVQAGGSLRLSCAASGSIFAYNAMGWYRQAPGKEREFVAVITRSDDSTYADSVKGRFTISRDNAKNSVYLQMNSLKPEDTAVYYCAAQPFVIDGGYRGDYWGQGTQVTVSS”, for which the “polyreactivity (PSR sort gate)” value is reported as “low polyreactivity”.
The entry for “QVQLVESGGGLVQAGGSLRLSCAASGSIFAYYAMGGYRQAPGKERELVAAITSGDSTYYADSVKGRFTISRDNAKNTVYLQMNSLKPEDTAVYYCAADHIWFYFYLYDYWGQGTQVTVSS” is “low polyreactivity”; for “QVQLVESGGGLVQAGGSLRLSCAASGSIFAYYAMGWYRQAPGKEMELVAAITRGGTTYYADSVKGRFTISRDNAKNTVYLQMNSLKPEDTAVYYCAVYYYSGTAGYRYGYWGQATQVTVSS” it is “high polyreactivity”.
The value for “QVQLVESGGGLVQAGGSLRLSCAASGSIFAYYAMGWYRQAPGKEREFVARITYSTDGTYYADSVKGRFTISRDNAKNTVYLQMNSLKPEDTAVYYCAVDTWWGFKRYKFDYWGQGTQVTVSS” was “low polyreactivity”; that for “QVQLVESGGGLVQAGGSLRLSCAASGSIFAYYAMGWYRQAPGKERELVAAISRRGGSTYYADSVKGRFTISRDNAKNTGYLQMNSLQPEDTAVYYCAADIGPRYDSWGLGTQVTVSS” was “high polyreactivity”; that for “QVQLVESGGGLVQAGGSLRLSCAASGSIFAYYAMGWYRQAPGKERELVADITSSGGITYYADSVKGRFTISRDNAKNTVYLQMISLKPEDTAVYYCNADSWAIGGGSYPFDYWGQGTQVTVSS” was “low polyreactivity”.
Consider “QVQLVESGGGLVQAGGSLRLSCAASGSIFAYYAMGWYRQAPGKERELVARIRRRSSSTFYADSVKGRFTISRDNAKYTVYLQMNSLKPEDTAVYYCAVRGPGTSTYWYHEYEYWGQGTQVTVSS”, for which the “polyreactivity (PSR sort gate)” value is “high polyreactivity”.
The value for “QVQLVESGGGLVQAGGSLRLSCAASGSIFCDKAMGWYRQAPGKERELVAAISIVGSTSYADSVKGRFTISRDNANNTVYLQMNSLKPEDTAVYYCAAENVRSDTGFDYWGQGTQVTVSS” was “low polyreactivity”.
The value for “QVQLVESGGGLVQAGGSLRLSCAASGSIFDANAIGWYRQAPGKERELVAAIDSGDITNYADSVKGRFTISRDNAKNTVYLQMNSLKPEDTAVYYCAAEWHYIYAYDYWGQGTQVTVSS” was “low polyreactivity”; that for “QVQLVESGGGLVQAGGSLRLSCAASGSIFDAYAMGWYRPATGKERELVAAITYSGGSTYYADSVKGRFTISRDNAKNTVYLQMNSLKPEDTAVYYCNTDSRVRTWFRAFTYDSWGQGTQVTVSS” was “low polyreactivity”.
The value for “QVQLVESGGGLVQAGGSLRLSCAASGSIFDAYAMGWYRQAPGKERELVAAISLSDTSTYYADSVKGRFTISRDNAKNTVYLQMNSLKPEDTAVYYCAAEFYIAYIEYDYWGQGTQVTVSS” was “high polyreactivity”; that for “QVQLVESGGGLVQAGGSLRLSCAASGSIFDDNAMGWYRPAPGKERELVATINYGGGRTSYADSVKGRSTISRDNAKNTVYLQMNSLKPEDTAVYYCAADPRQKEDYWGQGTQVTVSS” was “low polyreactivity”; that for “QVQLVESGGGLVQAGGSLRLSCAASGSIFDDNAMGWYRQAPGKERELVAAITSTDSTNYADSVKGRFTISRDNAKNPVYLQMNSLKPEDTAVYYCNAESLGWYRLYTVDYWGQGTQVTVSS” was “low polyreactivity”.
Regarding “QVQLVESGGGLVQAGGSLRLSCAASGSIFDDYAMGWYRPAPGKEREVVAAISSGGSTYYADSVKGRFTISRDNAKNTVYLQMNSLKPEDTAVYYCNALYPQVGFGYWGQGTQVTVSS”, the “polyreactivity (PSR sort gate)” value is “low polyreactivity”.
The entry for “QVQLVESGGGLVQAGGSLRLSCAASGSIFDDYAMGWYRQAAGKERELVAAITWNGGSTYADSVKGRFTISRDYAKNTVYLQMHSLKPEDTAVYYCNRGGAFNTRNEITRYGYWGQGTQVTVSS” is “low polyreactivity”; for “QVQLVESGGGLVQAGGSLRLSCAASGSIFDDYAMGWYRQAPGKEREFVADISYNGGTTYSADSVKGRFTISRDNAKNTVYLQMNSLKPEDTAVYYCAADRTNYTYYLPYDYWGPGTQVTVSS” it is “low polyreactivity”.
The entry for “QVQLVESGGGLVQAGGSLRLSCAASGSIFDDYAMGWYRQAPGKERELVAAISWSGGSTYYADSVKGRFTISRDNAKNTVYLQMNSLKPEDTAVYYCAAYDYDYLYGEYYWGQGTQVTVSS” is “low polyreactivity”.
The entry for “QVQLVESGGGLVQAGGSLRLSCAASGSIFDDYAMGWYRQAPGKERELVAAITSGGSTYYADSVKGRFTISRDNAKNTVYLQMNSLKPEDTAVYYCAAPENKSDEYDYWGQGTQVTVSS” is “low polyreactivity”.
